As a reminder, the Kd is the free concentration of one partner at which half of the binding sites on the other are occupied at equilibrium, for simple one-to-one binding. A word on the stoichiometry N: it is the number of molecules, sites or subunits per partner or assembly.

From PMC4719306 (Genes & Development, 2016) come the findings set out here.

The labels stand for the following.
B1: Strep-tagged N-terminal BRCT1–2 domain fragment of PTIP (recombinant) (domain or fragment)
chain: VPEELFREVKYYAVGDIDPQVIQLLKAGKAKEVSYNALASHIISEDGDNPEVGEAREVFDLPVVKPSWVTLSVQCGALLPVNGFSPESCQIFFGLTACLSQVSSEDRSALWALVTFHGGSCQLNLNKKCTHLIVPEPKGEKYERAVKRTSIKIVTPDWVLDCVSEKRRKDEAFYHP
B2: Flag-tagged full-length PA1 (recombinant) (natural protein, UniProt Q99L02 1-253, looked up)
chain: MSLALGHGTIAGSTAAPLSEEGEVTSGLQALAVEDTGGPSVSASKAEEEGKGSQEEAGREGSRPEEALEAPSAASDERAEGEAEDWCVPCSDEEVELPANGQSWMPPPSEIQRLYELLATQGTLELQAEILPRRPPTPEAQSEEERSDEEPEAKEEEEEKPHMPTEFDFDDEPMTPKDSLIDRRRTPGSSARSQKREARLDKVLSDMKRHKKLEEQILRTGRDLFSLDSEGPSPTSPPLRSSGNSLFPRQRKY

Test [1] has as its target B2. As to the kind of experiment: ITC. In general terms: In ITC the heat of successive injections is recorded.
Test [2] addresses B1. Briefly: ITC.

B1: in test [1], the Kd came out at 7.1 nM.

Turning to B2, in test [2], the dH is -26 kcal/mol and the “stoichiometry N” value is 1.
